# Measured values reported in publication PMC2148441.
# Target: human phosphopantetheinyl transferase (human) (UniProt Q9NRN7)
substance,measurement,value
"ACP domain of human fatty acid synthase with the hydrophobic patch Leu2157, Met2158, Val2160 replaced by alanine (from UniProt P49327 2117-2205) (domain or fragment)",Km for ACP in the PPT reaction after replacement of the hydrophobic patch by alanines (data not shown),> 1000 fold
